PMC3596305, “Escherichia coli NemA Is an Efficient Chromate Reductase That Can Be Biologically Immobilized to Provide a Cell Free System for Remediation of Hexavalent Chromium” (PLoS ONE, 2013)

Test system: [O]=[Cr](=[O])([OH])[OH]
Assay: purified protein
Conditions: 1 mM NADH, 50 mM Tris-Cl pH 7.0, 22°C

Point of comparison: “ChrR_St (Salmonella enterica subsp. enterica serovar Typhi)”, Km 37 ± 2 µM. Against it:
- NfsA_St (Salmonella enterica subsp. enterica serovar Typhi) — 4.9-fold higher, 180 µM
- NfsB_St (Salmonella enterica subsp. enterica serovar Typhi) — 8.6-fold higher, 320 ± 120 µM

Point of comparison: “ChrR_St (Salmonella enterica subsp. enterica serovar Typhi)”, kcat 0.031 s⁻¹. Against it:
- NfsA_St (Salmonella enterica subsp. enterica serovar Typhi) — 1.6-fold lower, 0.02 s⁻¹
- NfsB_St (Salmonella enterica subsp. enterica serovar Typhi) — 17-fold higher, 0.54 s⁻¹

Point of comparison: “NfsB_St (Salmonella enterica subsp. enterica serovar Typhi)”, kcat/Km 1700 M⁻¹ s⁻¹. Against it:
- NfsA_St (Salmonella enterica subsp. enterica serovar Typhi) — 12-fold lower, 140 M⁻¹ s⁻¹
- ChrR_St (Salmonella enterica subsp. enterica serovar Typhi) — 2-fold lower, 830 M⁻¹ s⁻¹
